Source: publication PMC4119481

Target: T1, IFN regulatory factor 3 (mouse (endogenous in BMDMs)), P70671
T1 chain: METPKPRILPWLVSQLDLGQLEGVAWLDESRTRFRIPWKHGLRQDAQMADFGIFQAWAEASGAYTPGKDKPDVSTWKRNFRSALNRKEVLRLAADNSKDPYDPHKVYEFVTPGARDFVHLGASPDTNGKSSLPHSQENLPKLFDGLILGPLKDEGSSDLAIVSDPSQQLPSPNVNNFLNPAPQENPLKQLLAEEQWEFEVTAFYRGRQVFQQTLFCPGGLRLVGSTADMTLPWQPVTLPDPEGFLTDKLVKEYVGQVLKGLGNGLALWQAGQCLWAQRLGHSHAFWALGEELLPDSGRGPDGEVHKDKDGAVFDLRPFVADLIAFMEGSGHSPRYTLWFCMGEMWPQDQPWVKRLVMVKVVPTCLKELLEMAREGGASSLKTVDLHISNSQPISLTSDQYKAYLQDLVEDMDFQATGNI
Assay: native gel or EMSA
Conditions: remark: other sources report otherwise

stoichiometry N: 2
B1: IFN regulatory factor 3, P70671 1-419 (natural protein)
chain: METPKPRILPWLVSQLDLGQLEGVAWLDESRTRFRIPWKHGLRQDAQMADFGIFQAWAEASGAYTPGKDKPDVSTWKRNFRSALNRKEVLRLAADNSKDPYDPHKVYEFVTPGARDFVHLGASPDTNGKSSLPHSQENLPKLFDGLILGPLKDEGSSDLAIVSDPSQQLPSPNVNNFLNPAPQENPLKQLLAEEQWEFEVTAFYRGRQVFQQTLFCPGGLRLVGSTADMTLPWQPVTLPDPEGFLTDKLVKEYVGQVLKGLGNGLALWQAGQCLWAQRLGHSHAFWALGEELLPDSGRGPDGEVHKDKDGAVFDLRPFVADLIAFMEGSGHSPRYTLWFCMGEMWPQDQPWVKRLVMVKVVPTCLKELLEMAREGGASSLKTVDLHISNSQPISLTSDQYKAYLQDLVEDMDFQATGNI
